From article PMC7335091, “Mechanistic insights into chromatin targeting by leukemic NUP98-PHF23 fusion” (Nature Communications, 2020)
Where two headings read alike, the source gives them in different places. Non-standard residues stand in square brackets, D forms with d. No end group written: not given here. Lys(Me3) = C[N+](C)(C)CCCC[C@H](N)C(=O)O

B2: PHD finger of PHF23 (aa 338-393), wild type (domain or fragment, human, UniProt Q9BUL5 338-393, looked up)
chain: DLITCYCRKPFAGRPMIECSLCGTWIHLSCAKIKKTNVPDFFYCQKCKELRPEARR
notes: human PHF23, PHD domain, aa 338-393, cloned into pGEX 6p-1; 15N- or 13C,15N-labelled for NMR; also called PHF23PHD; WT PHF23PHD; source: E. coli BL21 (DE3) RIL, purified (glutathione Sepharose 4B, GST cleaved, size exclusion chromatography)

Assays:
[1] = biological target: histone H3K4me3 peptide (Homo sapiens) (UniProt P68431); conditions: cited from earlier work
[2] = biological target: PHD finger of PHF23 (aa 338-393), wild type (human) (UniProt Q9BUL5); assay: other fluorescence titration; intrinsic tryptophan fluorescence, 25 °C; 2.0 µM PHF23PHD with increasing peptide, PBS (pH 6.5), 1 mM TCEP, excitation 295 nm; Kd averaged over three experiments
[3] = biological target: T1, PHF23 PHD finger (PHF23PHD) (Homo sapiens, UniProt Q9BUL5); assay: 1H, […] HSQC NMR titration; nonreducing SDS-PAGE; format: binding
T1 construct: PHD domain (aa 338–393)
T1 sequence (Q9BUL5 338-393): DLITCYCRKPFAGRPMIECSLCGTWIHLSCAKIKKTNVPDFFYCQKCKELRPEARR

[4] = biological target: histone H3K4me3 peptide (Homo sapiens) (UniProt P68431); conditions: cited from earlier work; remark: listed apart in the source
[5] = biological target: PHD finger of PHF23 (aa 338-393), L358M cancer-relevant mutant (human, UniProt Q9BUL5 338-393, L358M)
[6] = biological target: PHD finger of PHF23 (aa 338-393), R345L cancer-relevant mutant (human, UniProt Q9BUL5 338-393, R345L)
[7] = biological target: B2; assay: other fluorescence titration; intrinsic tryptophan fluorescence, 25 °C; 2.0 µM PHF23PHD with increasing peptide, PBS (pH 6.5), 1 mM TCEP, excitation 295 nm; Kd averaged over three experiments; conditions: both partners purified
[8] = biological target: T2, PHD finger of PHF23 (aa 338-393), R345L cancer-relevant mutant (human, UniProt Q9BUL5 338-393, R345L); assay: as above; conditions: both partners purified
T2 construct: human PHF23, PHD domain, aa 338-393, with the cancer-relevant mutation R345L (Cosmic); also called PHF23PHD R345L; source: E. coli BL21 (DE3) RIL, grown and purified as wild-type protein
T2 sequence (looked up): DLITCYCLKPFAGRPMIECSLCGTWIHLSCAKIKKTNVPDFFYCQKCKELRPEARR

[9] = biological target: T3, PHD finger of PHF23 (aa 338-393), L358M cancer-relevant mutant (human, UniProt Q9BUL5 338-393, L358M); assay: as above; conditions: both partners purified
T3 construct: human PHF23, PHD domain, aa 338-393, with the cancer-relevant mutation L358M (Cosmic); also called PHF23PHD L358M; source: E. coli BL21 (DE3) RIL, grown and purified as wild-type protein
T3 sequence (looked up): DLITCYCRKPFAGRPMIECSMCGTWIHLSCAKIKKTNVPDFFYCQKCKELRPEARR

[10] = biological target: the molecule itself; assay: crystal structure; PHF23PHD crystallized in the presence of H3K4me3 peptide; 0.1 M Tris pH 8.65, 25% tert-butanol, 18 °C; 2.9 Å; the peptide is not in the structure
[11] = biological target: B2; assay: NMR titration; 1H,15N HSQC at 298 K; 0.1 mM 15N-labeled PHD in PBS (pH 6.5), 1 mM TCEP, 8% D2O; histone H3 peptide titrated in; Kd from chemical shift changes against peptide concentration; conditions: both partners purified

For BPTF PHD (from UniProt Q12830), the Kd [1] is given as 3000 nM.

With histone H3K4me2 peptide the Kd [2] was 8 µM.

In the case of CCN(CC)C(=S)SSC(=S)N(CC)CC [DS, disulfiram], the “1H,15N HSQC NMR titration; nonreducing SDS-PAGE” value [3] is reported as “Gradual addition of AD or DS to PHF23PHD induced small but significant CSPs in the protein, indicative of direct interactions”.

For KDM5A PHD (from UniProt P29375), the Kd [4] is listed as 900 nM.

B1: histone H3K4me3 peptide (aa 1-12 of H3K4me3) (peptide, UniProt P68431 2-13, looked up)
peptide: ART[Lys(Me3)]QTARKSTG
notes: histone H3, residues 1-12, trimethylated on Lys4; source: synthetic peptide (SynPeptide)
Molecule B1 has a Kd [5] of 2400 nM, a Kd [6] of 4.3 µM and a Kd [7] of 2000 nM. B1: binds [8]; binds [9].

B2: binds [10].

B3: histone H3K4me1 peptide (peptide)
chain: ARTK(Me)QTARKSTG
With B3 the Kd [11] was 0.58 mM.

B4: histone H3K4me0 peptide (unmodified H3) (peptide)
chain: ARTKQTARKSTG
modifications: unmodified Lys4. Limits 1-12 taken from the H3K4me3 peptide of the same titration series
Work on B4 yielded a Kd [11] of 1.6 mM.
